Starred links: 1 amine or outer side, 2 acyl side, 3 side chain; linkers in the order of their positions; H or OH if unused. Positions of bridges follow the written chain, without caps; N, C: chain ends. Non-standard residues stand in square brackets, D forms with d. Primed or numbered codes have the meaning given here. PyrS2″ = (S)-3-amino-1-((pent-4-en-1-yloxy)carbonyl)pyrrolidine-3-carboxylic acid (stapling residue), C=CCCCOC(=O)N1CC[C@@](N[*:1])(C(=O)[*:2])C1; B5(16) = 2-amino-2-(pent-4-en-1-yl)hept-6-enoic acid = 2,2-bis(4-pentenyl)glycine (stitching residue), C=CCCCC(CCCC=C)(N[*:1])C(=O)[*:2]; EtGA = (S)-2-amino-3-((carboxymethyl)(ethyl)amino)propanoic acid, CCN(CC(=O)[*:3])C[C@H](N[*:1])C(=O)[*:2]; B5(3) = 2,2-bis(4-pentenyl)glycine (stitching residue), C=CCCCC(CCCC=C)(N[*:1])C(=O)[*:2]; Bta = N[C@@H](Cc1csc2ccccc12)C(=O)O; αAllylPro = C=CC[C@@]1(C(=O)O)CCCN1; tBuAla = CC(C)(C)C[C@H](N)C(=O)O; 3Thi = N[C@@H](Cc1ccsc1)C(=O)O; Cha = N[C@@H](CC1CCCCC1)C(=O)O; Cit = NC(=O)NCCC[C@H](N)C(=O)O; S8 = C=CCCCCCC[C@](C)(N)C(=O)O
Experiments:
[1] = target: T1, B-cat-Halo (UniProt P35222 1-781); assay: cell-based or functional assay
T1 sequence (looked up): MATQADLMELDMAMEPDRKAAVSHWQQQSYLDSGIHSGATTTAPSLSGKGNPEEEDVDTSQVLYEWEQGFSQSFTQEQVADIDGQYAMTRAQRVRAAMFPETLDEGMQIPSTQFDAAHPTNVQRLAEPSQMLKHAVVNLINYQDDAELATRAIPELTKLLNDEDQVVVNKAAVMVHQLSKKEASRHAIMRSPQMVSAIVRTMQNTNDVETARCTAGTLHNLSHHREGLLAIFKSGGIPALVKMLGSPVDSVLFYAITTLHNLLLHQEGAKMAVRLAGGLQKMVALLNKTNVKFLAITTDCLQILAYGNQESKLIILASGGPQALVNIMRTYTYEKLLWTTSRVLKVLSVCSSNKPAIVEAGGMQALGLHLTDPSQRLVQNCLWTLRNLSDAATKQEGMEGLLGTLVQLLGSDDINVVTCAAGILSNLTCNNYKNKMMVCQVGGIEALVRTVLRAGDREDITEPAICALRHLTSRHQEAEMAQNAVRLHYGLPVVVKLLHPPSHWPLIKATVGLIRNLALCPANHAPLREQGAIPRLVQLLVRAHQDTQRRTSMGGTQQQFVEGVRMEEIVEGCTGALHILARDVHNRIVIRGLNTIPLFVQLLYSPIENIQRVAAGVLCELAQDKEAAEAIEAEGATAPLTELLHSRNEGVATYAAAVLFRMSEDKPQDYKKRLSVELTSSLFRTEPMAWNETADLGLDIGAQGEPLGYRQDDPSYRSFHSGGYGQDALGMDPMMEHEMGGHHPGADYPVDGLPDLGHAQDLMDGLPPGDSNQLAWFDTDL

[2] = target: T2, beta-catenin in DLD1 TCF/LEF luciferase reporter cells (UniProt P35222 2-781); assay: cell-based or functional assay
T2 sequence (looked up): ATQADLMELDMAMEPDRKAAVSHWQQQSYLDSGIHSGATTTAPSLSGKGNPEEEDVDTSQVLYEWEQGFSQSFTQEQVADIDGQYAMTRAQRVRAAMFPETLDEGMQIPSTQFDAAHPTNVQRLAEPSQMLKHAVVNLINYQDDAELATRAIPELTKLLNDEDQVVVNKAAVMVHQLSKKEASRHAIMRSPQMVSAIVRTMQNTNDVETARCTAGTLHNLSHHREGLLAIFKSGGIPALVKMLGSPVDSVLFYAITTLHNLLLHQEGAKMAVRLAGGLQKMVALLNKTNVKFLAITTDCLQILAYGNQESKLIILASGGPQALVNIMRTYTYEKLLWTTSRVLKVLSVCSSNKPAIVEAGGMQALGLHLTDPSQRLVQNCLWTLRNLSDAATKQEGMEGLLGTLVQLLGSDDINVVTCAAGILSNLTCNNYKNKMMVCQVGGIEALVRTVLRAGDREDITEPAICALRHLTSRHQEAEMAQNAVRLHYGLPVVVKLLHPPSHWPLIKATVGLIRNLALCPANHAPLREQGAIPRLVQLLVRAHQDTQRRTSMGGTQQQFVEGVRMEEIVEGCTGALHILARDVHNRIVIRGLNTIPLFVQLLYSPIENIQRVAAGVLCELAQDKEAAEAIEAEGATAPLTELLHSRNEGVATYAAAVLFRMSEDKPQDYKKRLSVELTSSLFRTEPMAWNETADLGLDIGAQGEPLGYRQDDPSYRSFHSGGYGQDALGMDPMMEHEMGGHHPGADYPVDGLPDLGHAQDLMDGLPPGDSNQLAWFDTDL

[3] = target: T3, B-cat-Halo (UniProt P35222 1-781); assay: cell-based or functional assay; remark: listed apart in the source
T3 sequence (looked up): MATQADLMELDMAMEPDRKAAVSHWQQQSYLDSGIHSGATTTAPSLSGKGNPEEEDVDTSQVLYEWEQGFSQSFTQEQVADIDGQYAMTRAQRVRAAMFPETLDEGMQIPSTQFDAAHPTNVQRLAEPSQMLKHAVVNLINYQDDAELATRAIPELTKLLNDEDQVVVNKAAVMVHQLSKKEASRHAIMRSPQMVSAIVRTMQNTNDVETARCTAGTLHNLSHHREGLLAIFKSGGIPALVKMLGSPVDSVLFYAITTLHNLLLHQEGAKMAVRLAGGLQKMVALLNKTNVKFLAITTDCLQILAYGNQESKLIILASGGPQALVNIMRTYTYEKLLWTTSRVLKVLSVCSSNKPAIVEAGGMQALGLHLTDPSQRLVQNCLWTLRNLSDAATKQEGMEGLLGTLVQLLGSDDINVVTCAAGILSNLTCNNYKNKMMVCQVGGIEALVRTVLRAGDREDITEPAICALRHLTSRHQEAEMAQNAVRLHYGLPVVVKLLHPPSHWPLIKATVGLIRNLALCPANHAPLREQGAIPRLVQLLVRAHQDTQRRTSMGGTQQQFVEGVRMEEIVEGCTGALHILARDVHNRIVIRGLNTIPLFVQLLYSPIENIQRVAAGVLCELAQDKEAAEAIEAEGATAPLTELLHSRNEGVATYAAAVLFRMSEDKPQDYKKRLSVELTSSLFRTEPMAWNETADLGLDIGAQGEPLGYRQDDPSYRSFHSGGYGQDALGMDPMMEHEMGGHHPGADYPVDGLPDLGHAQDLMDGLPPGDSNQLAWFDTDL

[4] = target: T4, full-length beta-Catenin (Uniprot ID P35222) (Homo sapiens (Human), UniProt P35222 2-781); assay: fluorescence polarization competition; peptide titrated against full-length beta-catenin + 5FAM-TCF4(10-53) probe
T4 construct: The assay protocols say only 'full-length'; No tag is stated, although the AlphaScreen kit is a Histidine (Nickel Chelate) kit; also called B-Catenin; bCat
T4 sequence: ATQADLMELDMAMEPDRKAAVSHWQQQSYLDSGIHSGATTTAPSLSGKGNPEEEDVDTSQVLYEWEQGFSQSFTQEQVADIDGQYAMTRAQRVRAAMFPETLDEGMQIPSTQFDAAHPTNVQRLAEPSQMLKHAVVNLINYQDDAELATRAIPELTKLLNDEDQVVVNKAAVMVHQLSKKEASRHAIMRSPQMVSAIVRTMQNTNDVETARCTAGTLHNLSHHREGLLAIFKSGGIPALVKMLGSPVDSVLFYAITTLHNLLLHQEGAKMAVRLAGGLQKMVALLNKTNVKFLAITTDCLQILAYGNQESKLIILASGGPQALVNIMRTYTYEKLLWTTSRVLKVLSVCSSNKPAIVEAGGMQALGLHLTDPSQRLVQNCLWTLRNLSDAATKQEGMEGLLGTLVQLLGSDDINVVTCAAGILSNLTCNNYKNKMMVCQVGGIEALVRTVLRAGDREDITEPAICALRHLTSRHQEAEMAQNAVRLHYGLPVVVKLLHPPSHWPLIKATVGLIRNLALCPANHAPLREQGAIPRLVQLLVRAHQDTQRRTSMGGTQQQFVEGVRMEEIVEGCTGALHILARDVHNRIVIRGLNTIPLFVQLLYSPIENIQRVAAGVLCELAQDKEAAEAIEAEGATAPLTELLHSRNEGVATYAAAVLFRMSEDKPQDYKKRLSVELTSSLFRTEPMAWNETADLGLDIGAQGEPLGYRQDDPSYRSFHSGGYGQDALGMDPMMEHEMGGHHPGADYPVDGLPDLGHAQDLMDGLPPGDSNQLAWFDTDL
Procedure: (§1) The plate was incubated protected from light for 60 minutes at 20° C. prior to read. Reads were performed on a CLARIOstar plate reader (BMG Labtech) in duplicate, and data were fitted to a 1:1 binding model with hill slope using an in-house script. All provided concentrations are final concentrations.

[5] = target: T4, full-length beta-Catenin (Uniprot ID …); assay: AlphaScreen competition; peptide titrated against full-length beta-catenin + biotin-TCF4(10-53)
Procedure: as §1, with “Equal volume of the titrated peptide was added to the” for “The”, “and” for “was”, “incubated for 15 minutes at 20° C. Then 4 uL of donor and 4 uL acceptor beads at 10 ug/mL were added to the plate, for a 16 uL reaction pool and” for “incubated”

[6] = target: T5, B-cat-Halo (UniProt P35222 1-781); assay: cell-based or functional assay; remark: listed apart in the source
T5 sequence (looked up): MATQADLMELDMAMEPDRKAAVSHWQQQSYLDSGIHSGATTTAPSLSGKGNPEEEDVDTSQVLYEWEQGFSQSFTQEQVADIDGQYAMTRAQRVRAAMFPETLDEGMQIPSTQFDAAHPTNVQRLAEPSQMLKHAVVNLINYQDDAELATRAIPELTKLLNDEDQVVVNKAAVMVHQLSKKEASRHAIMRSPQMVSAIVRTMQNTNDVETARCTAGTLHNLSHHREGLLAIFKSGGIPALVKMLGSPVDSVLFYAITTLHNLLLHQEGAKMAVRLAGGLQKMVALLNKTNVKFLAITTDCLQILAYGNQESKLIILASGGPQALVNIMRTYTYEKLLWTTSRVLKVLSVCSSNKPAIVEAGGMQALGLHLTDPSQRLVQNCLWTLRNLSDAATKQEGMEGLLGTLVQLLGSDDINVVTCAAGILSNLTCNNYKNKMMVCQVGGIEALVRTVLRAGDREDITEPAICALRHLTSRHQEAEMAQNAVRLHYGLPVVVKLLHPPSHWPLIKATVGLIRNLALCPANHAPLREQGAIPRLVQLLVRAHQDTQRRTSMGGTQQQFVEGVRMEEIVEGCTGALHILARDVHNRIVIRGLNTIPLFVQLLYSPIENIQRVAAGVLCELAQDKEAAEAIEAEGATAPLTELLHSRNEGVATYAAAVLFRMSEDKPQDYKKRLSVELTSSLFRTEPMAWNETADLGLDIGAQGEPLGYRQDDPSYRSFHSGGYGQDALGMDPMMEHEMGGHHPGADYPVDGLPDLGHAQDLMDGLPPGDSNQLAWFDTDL

[7] = target: T6, B-cat-Halo (beta-catenin HaloTag fusion expressed in HEK293 cells) (UniProt P35222 1-781); assay: cell-based or functional assay
T6 sequence (looked up): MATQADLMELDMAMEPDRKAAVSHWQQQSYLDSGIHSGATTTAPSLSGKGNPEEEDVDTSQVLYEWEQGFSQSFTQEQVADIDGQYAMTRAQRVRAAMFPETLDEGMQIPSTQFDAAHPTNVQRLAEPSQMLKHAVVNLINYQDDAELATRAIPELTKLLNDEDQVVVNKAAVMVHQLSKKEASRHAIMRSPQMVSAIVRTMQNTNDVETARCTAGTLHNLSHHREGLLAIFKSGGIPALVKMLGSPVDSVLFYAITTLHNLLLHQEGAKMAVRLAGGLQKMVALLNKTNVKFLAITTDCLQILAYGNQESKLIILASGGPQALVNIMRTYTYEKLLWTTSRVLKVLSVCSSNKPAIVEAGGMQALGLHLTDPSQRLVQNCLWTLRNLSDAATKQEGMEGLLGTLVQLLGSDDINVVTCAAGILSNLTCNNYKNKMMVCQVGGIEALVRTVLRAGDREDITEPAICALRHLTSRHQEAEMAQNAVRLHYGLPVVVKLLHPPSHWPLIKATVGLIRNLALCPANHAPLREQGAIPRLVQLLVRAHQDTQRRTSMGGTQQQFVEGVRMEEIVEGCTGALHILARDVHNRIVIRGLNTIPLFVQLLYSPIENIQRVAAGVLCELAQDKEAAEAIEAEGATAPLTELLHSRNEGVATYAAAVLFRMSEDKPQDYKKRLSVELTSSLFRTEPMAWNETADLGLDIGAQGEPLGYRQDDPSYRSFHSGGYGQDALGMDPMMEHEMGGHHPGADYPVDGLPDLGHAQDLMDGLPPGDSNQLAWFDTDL

B1: I-629 (peptide)
peptide: Ac-[αAllylPro]DL[B5(16)]DEAAF[Cit][S8]F[Bta]-NH2
modifications: staple 1-4, 4-11; not fully specified; printed as Ac-PL3-Asp-Leu-B5-Asp-Glu-Ala-Ala-Phe-Cit-S8-Phe-BztA-NH2
NanoBRET Abs IC50 [1]: 30 µM

Ac-[αAllylPro]D[tBuAla][B5(3)]D[EtGA]AAFL[PyrS2″][3Thi][Bta]Q-NH2 (staple 1-4, 4-11; also: later-eluting HPLC isomer) [I-973]
DLD1 4% Abs IC50 [2]: 10.1 µM
NanoBRET Abs IC50 [3]: 19 µM

B2: I-357 (peptide)
peptide: XDAXDDAAFVXFAQ
modifications: not fully specified; N-terminal Ac; C-terminal NH2; PL3 at 1, B5 at 4, S8 at 11 (stapled 1-4 and 4-11)
notes: Stapled peptide composition; Earlier-eluting isomer composition; also called Ac-PL3-Asp-Ala-B5-Asp-Asp-Ala-Ala-Phe-Val-S8-Phe-Ala-Gln-NH2
EC50 [4]: 5 µM
EC50 [5]: 10 µM
NanoBRET % inh @ 10 uM [6]: -5.3%

Ac-[αAllylPro]D[Cha][B5(16)]DEAAFN[S8]F[Bta]Q-NH2 (staple 1-4, 4-11; also: later-eluting staple isomer composition) [I-620]
NanoBRET Abs IC50 [7]: 12 µM
